Test results from the supplement of paper PMC10567573.

B1: FBXO39 (parent)
chain: RVFKARIYTNRYETNEEDKTLQEI
B2: VDR (parent)
chain: VTLELSQLSMLPHLADLVSYSIQK

Variants of: B1
Assay: protein stability index of a GFP-peptide fusion (GPS, HEK-293T) (PSI 1-6); higher = more stable
Details: c terminus: a fixed tail appended
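Further: lentivirally expressed fusions sorted by FACS into six bins by GFP to DsRed ratio, PSI derived from sequencing read proportions per bin multiplied by bin number.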

Protein stability index, by site and new letter:
R6: M 1.99, A 3.66, G 3.7, T 3.79, P 4.08, Y 2.62, V 2.21, E 4.25, I 1.9, D 4.04, C 2.77, Q 3.71, W 1.92, F 1.41, K 3.01, S 3.37, N 3.72, H 2.83
F3: I 4.61, A 4.19, S 4.54, Q 4.59, E 5.23, R 4.71, G 4.12, D 5.46, P 4.55, T 4.88, W 2.65, N 4.76, M 4.41, C 2.82, H 4.63, Y 2.59, V 4.15, L 3.05, K 4.32
A5: N 3.95, I 2.2, M 3.02, L 3.33, P 3.05, F 1.63, E 4.48, T 2.1, Q 2.7, R 3.49, Y 2.19, V 1.67, S 2.71, W 2.34, K 2.69, D 4.39, H 3.04, G 3.1, C 3.51
K4: V 2.16, A 2.55, Q 4.48, S 3.6, D 4.08, H 3.52, N 3.6, M 2.65, T 4.72, Y 2.11, L 1.99, F 2.03, G 3.59, P 4.27, C 2.83, R 3.12, I 1.88, E 3.81
I7: F 2.67, G 3.64, E 3.24, D 4.26, A 3.14, C 2.74
V2: W 2.45, S 4.22, E 4.36, M 3.98, L 3.19, D 4.76, F 3.18, T 2.89, C 2.87, I 2.51, K 3.36, H 3.85, Q 3.37, G 3.69, R 4.24, N 4.09, P 4.56
R1: I 3.15, Y 2.14, C 1.7, M 3.34, S 2.72, W 2.08, D 3.95, H 3.35, P 4.26, A 2.84, L 2.74, K 2.6, Q 3.74, G 3.42, V 1.66, T 2.72, F 1.66

Variants of: B2
Assay: as above
Details: c terminus: a fixed tail appended

Protein stability index of substitutions, site by site:
P12: Q 3.63, W 4.36, N 2.22, K 2.72, V 2.61, T 3.29, M 2.51, Y 3.69, R 3.79, S 2.38, L 3.04
Y20: L 3.69, H 3.24, T 2.31, I 3.08, R 3.61, C 2.66, G 2.73, D 1.35, F 2.41, N 1.81, E 2.97, P 2.3, K 2.33, Q 3.29, M 2.91, A 1.94, S 2.92, W 2.91
K24: D 3.06, A 2.14, S 2.66, Q 3.06, R 3.01, E 3.5, W 3.71, I 4.63, N 3.71, Y 3.25, C 2.39, M 3.28, G 2.79, P 2.95, T 3.5, L 1.86, V 5.45, H 5.43
V18: P 1.88, R 2.57, M 2.99, F 3.13, Q 2.76, E 1.73, K 2.69, A 3.69, N 1.8, D 2.24, W 3.29, S 2.94, G 1.78, H 2.04, C 4.49, L 3.33, T 1.49, I 2.79, Y 3.48
H13: K 2.92, A 2.64, W 1.99, T 2.23, G 2.52, M 4.11, F 2.48, N 2.13, P 2.69, V 1.98, S 2.57, E 3.51, I 3.46, Y 2.58, R 2.16, D 2.87, Q 1.8
Q23: L 3.08, E 3.09, V 2.59, K 3.23, W 1.56, P 1.68, G 2.84, H 5.2, S 2.05, I 2.56, F 4.15, N 2.07, Y 1.97, T 2.74, C 2.33
A15: L 3.63, E 1.85, T 2.83, W 2.67, P 2.1, M 2.78, I 3.26, F 2.81, N 2.99, V 3.02, S 2.73, G 2.59, Y 4.33, D 3.12, H 4.28, Q 2.83, R 2.64, K 2.64
S21: F 3.64, Q 1.43, W 3.16, H 2.5, Y 2.45, N 3.47, I 1.89, G 2.48, M 1.43, V 3.87, K 2.89, P 1.05, D 3.11, R 2.13, E 2.84
L17: V 1.66, E 1.87, S 1.6, Q 2.42, D 1.7, K 1.68, W 3.14, H 1.98, M 2.75, C 3.09, R 1.62, N 1.77, P 2.77, G 1.33, T 2.47, A 2.04
D16: G 1.67, S 2.82, W 2.26, C 3.86, A 3.1, L 3.77, F 3.5, M 3.71, T 2.91, R 3.75, V 3.99, K 4.49, Y 2.31, P 3.09, N 3.07, Q 3.98, H 3, E 4.21
L14: R 1.86, E 2.88, V 3.03, A 2.18, D 2.49, K 2.31, P 1.85, H 2.6, S 1.66, F 2.69, Y 3.47, I 3.33, M 3.71, T 2.12, C 2.09, Q 2.22, W 2.95, G 1.71, N 1.61
I22: M 3.49, P 1.55, S 1.79, A 1.56, G 2.47, K 1.72, H 2.34, E 1.92, D 2.23, Q 2.74, F 2.12, W 1.98, T 1.87, C 4.35, V 4.61, N 2.32, R 2.12, Y 3.63
S19: Y 2.42, A 2.23, L 4.2, D 2.27, N 3.84, R 3.25, E 2.05, F 3.49, K 1.68, M 3.08, I 2.76, H 2.79, W 3.07, P 2.63, G 4.13, C 2.33, V 4.3, T 3.23
